The values below come from patent US20240269252A1, “COMPOSITIONS FOR INDUCING AN IMMUNE RESPONSE” (President and Fellows of Harvard College, priority 2017, published 2024).

This series can be described thus: Biomolecule release quantification: incorporation efficiency and release kinetics of CpG ODN, GM-CSF and antigen from cryogel vaccines. The format is physicochemical. The settings on record: for encapsulation efficiency: encapsulated in vaccine cryogel by cryo-polymerization.

The substance “5′-TCCATGACGTTCCTGACGTT-3′ [CpG-ODN, reference compound]” displayed an encapsulation efficiency of 48%. The “CpG-ODN eluted from the hydrogel” value (within the first 2 days) turned out to be 50%.
For the substance “granulocyte-macrophage colony-stimulating factor [GM-CSF]”, the encapsulation efficiency is recorded as 87%. In addition, for the setting “GM-CSF from vaccine cryogel, in vitro”, the “burst release of the loaded amount” value is “about 8%”. Moreover, the GM-CSF released (over the first 5 days in vitro) is on record as 85%.
